T1: SHARP R2-3-4h (SHARP-RRM) (Homo sapiens, UniProt Q96T58 335-620)
T1 sequence: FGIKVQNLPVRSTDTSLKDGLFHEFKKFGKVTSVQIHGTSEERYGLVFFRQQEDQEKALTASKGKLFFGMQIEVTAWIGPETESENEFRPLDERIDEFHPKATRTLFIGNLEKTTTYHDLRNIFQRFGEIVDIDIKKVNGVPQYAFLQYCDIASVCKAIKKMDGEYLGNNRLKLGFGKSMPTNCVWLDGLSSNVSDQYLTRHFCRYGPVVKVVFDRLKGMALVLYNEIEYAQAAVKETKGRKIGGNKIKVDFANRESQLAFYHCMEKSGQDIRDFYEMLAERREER

T2: GST-His-SHARP R3-4h (Homo sapiens, UniProt Q96T58 436-620)
T2 sequence: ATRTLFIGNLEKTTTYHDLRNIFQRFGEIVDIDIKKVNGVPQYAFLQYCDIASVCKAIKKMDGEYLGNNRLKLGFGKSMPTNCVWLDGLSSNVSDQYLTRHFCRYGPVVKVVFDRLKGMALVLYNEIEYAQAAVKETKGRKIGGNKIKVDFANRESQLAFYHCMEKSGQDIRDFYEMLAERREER

B1: SRA RNA H12-H13 extended (structured_RNA)
RNA: GGGAGCAGGUAUGUGAUGACAUCAGCCGACGCCUGGCACUGCUGCAGGAACAGUGGGCUGGAGGAAAGUUGUCAAUACCUGUAAGAGACCGAAUUCACUGGCCGUCGUUUUACAACGUCGUGACUGGGAAAAC

What was measured:
[1] = biological target: T1, SHARP R2-3-4h (SHARP-RRM); assay: competition
GST-His-SHARP R3-4h = biological target: T2, GST-His-SHARP R3-4h; assay: UV crosslinking

Binder	binding result [1]	binding result (GST-His-SHARP R3-4h)
AAAAAAAAAAAAAAA (ssRNA) [A15]	no binding	
B1		binds
